Test results published in patent US20160355591A1.

How the values were obtained:
[1] = target: HLA-DR (human leukocyte antigen-DR) on human lymphoma and leukemia cells and human lymphocytes (human); test: 697 (ALL) cells; no mAb 4.9; isotype control
[2] = target: HLA-DR (human leukocyte antigen-DR) on human lymphoma and leukemia cells and human lymphocytes (human); test: REH (ALL) cells; no mAb 3.9; isotype control
[3] = target: HLA-DR (human leukocyte antigen-DR) on human lymphoma and leukemia cells and human lymphocytes (human); test: K562 (CML) cells; no mAb 3.2; isotype control
[4] = target: HLA-DR (human leukocyte antigen-DR) on human lymphoma and leukemia cells and human lymphocytes (human); test: MN60 (ALL) cells; no mAb 8.1; isotype control
[5] = target: HLA-DR (human leukocyte antigen-DR) on human lymphoma and leukemia cells and human lymphocytes (human); test: WAC (CLL) cells; no mAb 15.8; isotype control
[6] = target: HLA-DR (human leukocyte antigen-DR) on human lymphoma and leukemia cells and human lymphocytes (human); test: MEC-1 (CLL) cells; no mAb 4.7; isotype control
[7] = target: HLA-DR (human leukocyte antigen-DR) on human lymphoma and leukemia cells and human lymphocytes (human); test: GDM-1 (AML) cells; no mAb 16.8; isotype control
[8] = target: HLA-DR (human leukocyte antigen-DR) on human lymphoma and leukemia cells and human lymphocytes (human); test: RS4;11 (ALL) cells; no mAb 6.4; isotype control
[9] = target: HLA-DR (human leukocyte antigen-DR) on human lymphoma and leukemia cells and human lymphocytes (human); test: Jeko-1 (MCL) cells; no mAb 14.3; isotype control
[10] = target: HLA-DR (human leukocyte antigen-DR) on human lymphoma and leukemia cells and human lymphocytes (human); test: Kasumi-3 (AML) cells; no mAb 9.6; isotype control
[11] = target: HLA-DR (human leukocyte antigen-DR) on human lymphoma and leukemia cells and human lymphocytes (human); test: Kasumi-1 (AML) cells; no mAb 18.2; isotype control
[12] = target: HLA-DR (human leukocyte antigen-DR) on human lymphoma and leukemia cells and human lymphocytes (human); test: Granta-519 (MCL) cells; no mAb 15.3; isotype control
[13] = target: HLA-DR (human leukocyte antigen-DR) on human lymphoma and leukemia cells and human lymphocytes (human); test: HC-1 (hairy cell leukemia) cells; no mAb 4.8; isotype control
[14] = target: HLA-DR (L243 antigen) on canine lymphocytes and canine lymphoma cells (dog); test: flow cytometry, dog lymphoma aspirate; none 3.37; control antibody
[15] = target: HLA-DR (L243 antigen) on canine lymphocytes and canine lymphoma cells (dog); test: flow cytometry, dog lymphoma aspirate; none 3.85; control antibody
[16] = target: HLA-DR (L243 antigen) on canine lymphocytes and canine lymphoma cells (dog); test: flow cytometry, canine lymphoma aspirate 150836; none 3.4; control antibody
[17] = target: HLA-DR (L243 antigen) on canine lymphocytes and canine lymphoma cells (dog); test: flow cytometry, canine lymphoma aspirate 150836; none 3.9; control antibody
[18] = target: HLA-DR (human leukocyte antigen-DR) on human lymphoma and leukemia cells and human lymphocytes (human); test: indirect flow cytometry, Namalwa cells, FITC-GAM 2nd Ab; none 2.91; control antibody
[19] = target: Fcγ-receptor on effector cells; test: cell-based or functional assay
[20] = target: CD22 on human cells (human) (UniProt P20273); test: 697 (ALL) cells; no mAb 4.9
[21] = target: CD22 on human cells (human) (UniProt P20273); test: REH (ALL) cells; no mAb 3.9
[22] = target: CD22 on human cells (human) (UniProt P20273); test: K562 (CML) cells; no mAb 3.2
[23] = target: CD22 on human cells (human) (UniProt P20273); test: MN60 (ALL) cells; no mAb 8.1
[24] = target: CD22 on human cells (human) (UniProt P20273); test: WAC (CLL) cells; no mAb 15.8
[25] = target: CD22 on human cells (human) (UniProt P20273); test: MEC-1 (CLL) cells; no mAb 4.7
[26] = target: CD22 on human cells (human) (UniProt P20273); test: GDM-1 (AML) cells; no mAb 16.8
[27] = target: CD22 on human cells (human) (UniProt P20273); test: RS4;11 (ALL) cells; no mAb 6.4
[28] = target: CD22 on human cells (human) (UniProt P20273); test: Jeko-1 (MCL) cells; no mAb 14.3
[29] = target: CD22 on human cells (human) (UniProt P20273); test: Kasumi-3 (AML) cells; no mAb 9.6
[30] = target: CD22 on human cells (human) (UniProt P20273); test: Kasumi-1 (AML) cells; no mAb 18.2
[31] = target: CD22 on human cells (human) (UniProt P20273); test: Granta-519 (MCL) cells; no mAb 15.3
[32] = target: CD22 on human cells (human) (UniProt P20273); test: HC-1 (hairy cell leukemia) cells; no mAb 4.8
[33] = target: CD22 on dog lymphocytes and dog lymphoma cells (dog); test: flow cytometry, dog lymphoma aspirate; none 3.37
[34] = target: CD22 on dog lymphocytes and dog lymphoma cells (dog); test: flow cytometry, dog lymphoma aspirate; none 3.85
[35] = target: CD22 on dog lymphocytes and dog lymphoma cells (dog); test: flow cytometry, canine lymphoma aspirate 150836; none 3.4
[36] = target: CD22 on dog lymphocytes and dog lymphoma cells (dog); test: flow cytometry, canine lymphoma aspirate 150836; none 3.9
[37] = target: CD22 on human cells (human) (UniProt P20273); test: indirect flow cytometry, Namalwa cells, FITC-GAM 2nd Ab; none 2.91
[38] = target: HLA-DR (human leukocyte antigen-DR) on human lymphoma and leukemia cells and human lymphocytes (human); test: indirect flow cytometry, Namalwa cells, FITC-GAM 2nd Ab; none 2.91; antibody of irrelevant specificity
[39] = target: HLA-DR (human leukocyte antigen-DR) on human lymphoma and leukemia cells and human lymphocytes (human); test: indirect flow cytometry, Namalwa cells, FITC-GAH 2nd Ab; none 2.52; antibody of irrelevant specificity (anti-EGP-1)
[40] = target: T1, CD20 on human cells (human) (UniProt P11836); test: 697 (ALL) cells; no mAb 4.9
T1 sequence (looked up): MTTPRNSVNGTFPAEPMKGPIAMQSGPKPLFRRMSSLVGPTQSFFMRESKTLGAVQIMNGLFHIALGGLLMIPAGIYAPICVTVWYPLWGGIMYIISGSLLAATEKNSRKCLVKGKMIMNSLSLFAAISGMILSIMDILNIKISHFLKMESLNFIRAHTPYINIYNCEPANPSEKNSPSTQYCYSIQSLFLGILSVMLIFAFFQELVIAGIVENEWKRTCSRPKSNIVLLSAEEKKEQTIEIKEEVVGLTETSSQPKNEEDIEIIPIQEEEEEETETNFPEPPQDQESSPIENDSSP

[41] = target: T1, CD20 on human cells (human); test: REH (ALL) cells; no mAb 3.9
[42] = target: T1, CD20 on human cells (human); test: K562 (CML) cells; no mAb 3.2
[43] = target: T1, CD20 on human cells (human); test: MN60 (ALL) cells; no mAb 8.1
[44] = target: T1, CD20 on human cells (human); test: WAC (CLL) cells; no mAb 15.8
[45] = target: T1, CD20 on human cells (human); test: MEC-1 (CLL) cells; no mAb 4.7
[46] = target: T1, CD20 on human cells (human); test: GDM-1 (AML) cells; no mAb 16.8
[47] = target: T1, CD20 on human cells (human); test: RS4;11 (ALL) cells; no mAb 6.4
[48] = target: T1, CD20 on human cells (human); test: Jeko-1 (MCL) cells; no mAb 14.3
[49] = target: T1, CD20 on human cells (human); test: Kasumi-3 (AML) cells; no mAb 9.6
[50] = target: T1, CD20 on human cells (human); test: Kasumi-1 (AML) cells; no mAb 18.2
[51] = target: T1, CD20 on human cells (human); test: Granta-519 (MCL) cells; no mAb 15.3
[52] = target: T1, CD20 on human cells (human); test: HC-1 (hairy cell leukemia) cells; no mAb 4.8
[53] = target: T2, CD20 on dog lymphocytes and dog lymphoma cells (dog) (UniProt Q3C2E2); test: flow cytometry, dog lymphoma aspirate; none 3.37
T2 sequence (looked up): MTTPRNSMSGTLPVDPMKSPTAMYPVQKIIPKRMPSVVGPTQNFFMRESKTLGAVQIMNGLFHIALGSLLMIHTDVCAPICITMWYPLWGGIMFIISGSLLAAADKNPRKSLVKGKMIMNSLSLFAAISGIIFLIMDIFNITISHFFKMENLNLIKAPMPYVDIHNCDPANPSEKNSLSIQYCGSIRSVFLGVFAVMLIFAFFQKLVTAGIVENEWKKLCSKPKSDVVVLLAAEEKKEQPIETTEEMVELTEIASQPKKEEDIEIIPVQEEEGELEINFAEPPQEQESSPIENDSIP

[54] = target: T2, CD20 on dog lymphocytes and dog lymphoma cells (dog); test: flow cytometry, dog lymphoma aspirate; none 3.85
[55] = target: T2, CD20 on dog lymphocytes and dog lymphoma cells (dog); test: flow cytometry, canine lymphoma aspirate 150836; none 3.4
[56] = target: T2, CD20 on dog lymphocytes and dog lymphoma cells (dog); test: flow cytometry, canine lymphoma aspirate 150836; none 3.9
[57] = target: T2, CD20 on dog lymphocytes and dog lymphoma cells (dog); test: flow cytometry on tumor aspirates from dogs with lymphoma
[58] = target: T1, CD20 on human cells (human); test: indirect flow cytometry, Namalwa cells, FITC-GAM 2nd Ab; none 2.91
[59] = target: CD22 on dog lymphocytes and dog lymphoma cells (dog); test: flow cytometry, dog lymphoma aspirate; none 3.24
[60] = target: CD22 on dog lymphocytes and dog lymphoma cells (dog); test: flow cytometry, dog lymphoma aspirate; none 4.48
[61] = target: CD22 on dog lymphocytes and dog lymphoma cells (dog); test: flow cytometry, canine lymphoma aspirate 150836; none 3.2
[62] = target: CD22 on dog lymphocytes and dog lymphoma cells (dog); test: flow cytometry, canine lymphoma aspirate 150836; none 4.5

Ag8 (P3x63 Ag8, murine myeloma derived mAb, isotype control) (antibody)
mean FL [1]: 5.6
mean FL [2]: 3.9
mean FL [3]: 4.1
mean FL [4]: 10.5
mean FL [5]: 14.4
mean FL [6]: 6
mean FL [7]: 20.1
mean FL [8]: 8.6
mean FL [9]: 17.4
mean FL [10]: 15.7
mean FL [11]: 17
mean FL [12]: 16.9
mean FL [13]: 3.5
mean FL [14]: 3.04
% Positive [15]: 2.81%
mean FL [16]: 3
% Positive [17]: 2.8%
geometric mean fluorescence [18]: 3.64

hL243 (humanized L243 anti-HLA-DR antibody, IgG1/K isotype)
specific lysis of Daudi target cells (ADCC), corrected for the effect on effector cells [19]: 48%

LL2 (murine anti-human CD22 mAb) (antibody)
mean FL [20]: 15.9
mean FL [21]: 16.8
mean FL [22]: 4.3
mean FL [23]: 17.1
mean FL [24]: 20.1
mean FL [25]: 49
mean FL [26]: 28.5
mean FL [27]: 20.9
mean FL [28]: 25
mean FL [29]: 13.9
mean FL [30]: 20.9
mean FL [31]: 28.6
mean FL [32]: 17.8
mean FL [33]: 3.73
% Positive [34]: 5.05%
mean FL [35]: 3.7
% Positive [36]: 5.1%
geometric mean fluorescence [37]: 10.5

hL243γ4P (IMMU-114; humanized L243, IgG4/K isotype with Ser241Pro hinge mutation) (antibody)
specific lysis of Daudi target cells (ADCC), corrected for the effect on effector cells [19]: 12%

RS7 (murine mAb) (antibody)
geometric mean fluorescence [38]: 3.39

hRS7 (humanized anti-EGP-1 antibody)
geometric mean fluorescence [39]: 2.47

2B8 (murine anti-human CD20 mAb) (antibody)
mean FL [40]: 6.9
mean FL [41]: 23.5
mean FL [42]: 4.3
mean FL [43]: 162
mean FL [44]: 275
mean FL [45]: 175
mean FL [46]: 15.6
mean FL [47]: 11.5
mean FL [48]: 455
mean FL [49]: 11
mean FL [50]: 14.5
mean FL [51]: 677
mean FL [52]: 42.2
mean FL [53]: 3.11
% Positive [54]: 2.61%
mean FL [55]: 3.1
% Positive [56]: 2.6%
positive samples (of 21 samples) [57]: 5
strongly positive samples (of 21 samples) [57]: 3
geometric mean fluorescence [58]: 6.16

hLL2 (epratuzumab, humanized anti-CD22) (antibody)
mean FL [59]: 3.37
% Positive [60]: 4.85%
mean FL [61]: 3.4
% Positive [62]: 4.9%
